T1: FZD5 CRD (Homo sapiens, UniProt Q13467)
T1 construct: K29-T156; GPI anchor signal (C); expressed in transfected cells; host or cells: CHO cells, lentiviral pLenti-puro
T1 sequence (Q13467 29-156): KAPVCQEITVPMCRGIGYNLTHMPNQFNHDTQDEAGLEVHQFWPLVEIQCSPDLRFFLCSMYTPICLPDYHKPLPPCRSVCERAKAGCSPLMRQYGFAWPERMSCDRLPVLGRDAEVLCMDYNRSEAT

T2: FZD6 CRD (Homo sapiens, UniProt O60353)
T2 construct: S20-P146; GPI anchor signal (C); expressed in transfected cells; host or cells: CHO cells, lentiviral pLenti-puro
T2 sequence (O60353 20-146): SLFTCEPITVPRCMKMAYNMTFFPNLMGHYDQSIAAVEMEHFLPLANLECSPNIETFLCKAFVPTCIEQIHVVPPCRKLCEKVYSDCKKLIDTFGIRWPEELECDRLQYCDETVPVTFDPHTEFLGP

T3: FZD3 CRD (Homo sapiens, UniProt Q9NPG1)
T3 construct: CRD of FZD1, FZD2, FZD3, FZD4, FZD5, FZD6, FZD7, FZD8, FZD9 or FZD10; GPI anchor signal (C); expressed in transfected cells; host or cells: CHO cells, lentiviral pLenti-puro
T3 sequence (Q9NPG1 23-136 limits assumed): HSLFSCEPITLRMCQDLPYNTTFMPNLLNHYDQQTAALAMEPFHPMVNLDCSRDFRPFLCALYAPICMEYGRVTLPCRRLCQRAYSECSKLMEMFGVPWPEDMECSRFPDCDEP

T4: FZD4 CRD (Homo sapiens, UniProt Q9ULV1)
T4 construct: E42-V167; GPI anchor signal (C); expressed in transfected cells; host or cells: CHO cells, lentiviral pLenti-puro
T4 sequence (Q9ULV1 42-167): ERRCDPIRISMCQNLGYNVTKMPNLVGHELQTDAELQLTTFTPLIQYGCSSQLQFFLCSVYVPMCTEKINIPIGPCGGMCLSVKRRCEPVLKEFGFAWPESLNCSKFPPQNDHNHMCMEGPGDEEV


Legend:
[1] = tested on: RWP1 cells; test: Effect of anti-FZD5 Fabs on proliferation of pancreatic cancer cell lines (percent growth inhibition); type: cell-based, human; conditions: Fab 10 μg/ml
Protocol: (§1) The effect of presently disclosed anti-FZD5 Fabs on proliferation of RNF43 loss-of-function mutant pancreatic cancer cell lines HPAFII, PATU8988S and ASPC-1; and on pancreatic cancer cell line RWP1, was tested at […] and 10 μg/ml.

[2] = tested on: PATU8988S cells; test: as above; type: cell-based, human; conditions: Fab 10 μg/ml
Protocol: as §1

[3] = tested on: HPAFII cells; test: as above; type: cell-based, human; conditions: for percent growth inhibition, HPAFII 2 μg/ml: Fab 2 μg/ml
Protocol: as §1

[4] = tested on: ASPC-1 cells; test: as above; type: cell-based, human; conditions: Fab 10 μg/ml
Protocol: as §1

[5] = tested on: RWP1 cells; test: as above; type: cell-based, human; conditions: Fab 2 μg/ml
[6] = tested on: ASPC-1 cells; test: as above; type: cell-based, human; conditions: Fab 2 μg/ml
[7] = target: T1, FZD5 CRD; test: Immunofluorescence of anti-FZD5 Fab binding to CHO cells overexpressing Frizzled CRD; set-up: key: −: no binding; +: very weak binder; ++: weak binder; +++: good binder; ++++: very good binder
Protocol: (§2) Plasmids: pLCKO lentiviral vector used for knockout (TKO) library construction and expression of individual gRNAs was constructed as described previously (Hart et al., 2015). Briefly, single guide RNA (sgRNA) scaffold was amplified from px330 (Addgene 42230) and cloned into pLKO.TRC005 lentiviral vector (Broad Institute, Cambridge, Mass.) using AgeI/EcoRI restriction sites. BfuAI sites were added at the 5′ end of the sgRNA scaffold for cloning the TKO library or individual gRNA target sequences. Lenti Cas9-2A-BsdR vector used to generate Cas9 stable expression cell lines was constructed as described previously (Hart et al., 2015). Briefly, lentiCRISPR pXPR_001 (Addgene 49535) was modified through removal of the sgRNA scaffold region through NdeI/EcoRI digest and blunt ends generation using Large Klenow Fragment (NEB). 2A-puro was replaced with 2A-BsdR by PCR using the NheI/MluI sites. Each of the 10 human Frizzled cysteine rich domains (CRDs) were cloned into the lentiviral expression plasmid pLenti-puro in the following cassette: FZD_CRD-MYC-GPI.
(§3) To confirm that the FZD5-WNT7B circuit is not driven simply by expression and rule out the possibility of a disconnect between RNA and protein levels for the Wnt receptors in HPAF-II cells, a panel of recombinant Fabs were generated, alternatively referred to herein as ‘Frizzled profiler’, that can detect and discriminate all but one of the ten Frizzled receptors. […] To characterize the binding specificity of these Fabs on cells, a panel of 10 CHO cell lines was generated, each expressing the CRD domain of a different myc-tagged Frizzled family member anchored at the plasma membrane through a GPI anchor (CHO-myc-FZDGPI). Despite the high sequence identity between Frizzled family members (FIG. 7A, FIG. 7B), selective Fabs were identified for FZD4, FZD5, FZD6 and FZD10 as assessed by immunofluorescence and flow cytometry (FIG. 7D and FIG. 8). […] The FZD8 CRD is most homologous to that of FZD5 (FIG. 7B). These Fabs can be used to discriminate expression of FZD1, FZD2, FZD4, FZD5, FZD6, FZD7, FZD8, FZD9 and FZD10 (FIG. 7D and FIG. 8). The ‘Frizzled profiler’ therefore consists of 10 different Fabs that can be used to discriminate expression of 9 different Frizzled family members. The Frizzled profiler was then used to confirm that HPAF-II cells express FZD1, FZD5, FZD6 and possibly FZD8 (FIG. 7E).
(§4) The binding of anti-FZD5 Fabs to cell surface-expressed Frizzled protein was further determined for each member of the Frizzled family via flow cytometry and immunofluorescence analysis of a panel of 10 CHO cell lines, each ectopically over-expressing the extracellular cysteine-rich domain (CRD) of a different Frizzled protein family member.

[8] = target: T2, FZD6 CRD; test: as above; set-up: key: −: no binding; +: very weak binder; ++: weak binder; +++: good binder; ++++: very good binder
Protocol: as §2, §3, §4

[9] = target: T3, FZD3 CRD; test: as above; set-up: key: −: no binding; +: very weak binder; ++: weak binder; +++: good binder; ++++: very good binder
Protocol: as §2, §3, §4

[10] = target: T4, FZD4 CRD; test: as above; set-up: key: −: no binding; +: very weak binder; ++: weak binder; +++: good binder; ++++: very good binder
Protocol: as §2, §3, §4

[11] = target: T5, FZD1 CRD (Homo sapiens, UniProt Q9UP38); test: as above; set-up: key: −: no binding; +: very weak binder; ++: weak binder; +++: good binder; ++++: very good binder
T5 construct: D112-P238; GPI anchor signal (C); expressed in transfected cells; host or cells: CHO cells, lentiviral pLenti-puro
Protocol: as §2, §3, §4

Molecule	percent growth inhibition, RWP1 10 μg/ml [1]	percent growth inhibition, PATU8988s 10 μg/ml [2]	percent growth inhibition, HPAFII 2 μg/ml [3]	percent growth inhibition, HPAFII 10 μg/ml ([3]; Fab 10 μg/ml)	percent growth inhibition, ASPC-1 10 μg/ml [4]	percent growth inhibition, RWP1 2 μg/ml [5]	percent growth inhibition, ASPC-1 2 μg/ml [6]	Immunofluorescence binding, Frizzled CRD overexpressed on CHO cells: FZD5 [7]	Immunofluorescence binding, Frizzled CRD overexpressed on CHO cells: FZD6 [8]	Immunofluorescence binding, Frizzled CRD overexpressed on CHO cells: FZD3 [9]	Immunofluorescence binding, Frizzled CRD overexpressed on CHO cells: FZD4 [10]	Immunofluorescence binding, Frizzled CRD overexpressed on CHO cells: FZD1 [11]
Fab-2901: anti-FZD5 Fab with antibody variable region Fv-2901; CDR SEQ ID NOs: 35, 36, 40, 79, 116, 154 (antibody, V domains shown) VH: EVQLVESGGGLVQPGGSLRLSCAASGFNISYSYMHWVRQAPGKGLEWVASIYSYSSYTYYADSVKGRFTISADTSKNTAYLQMNSLRAEDTAVYYCARSWYYWSPSSGMDYWGQGTLVTVSS VL: DIQMTQSPSSLSASVGDRVTITCRASQSVSSAVAWYQQKPGKAPKLLIYSASSLYSGVPSRFSGSRSGTDFTLTISSLQPEDFATYYCQQGGFLITFGQGTKVEIK	21.10%	−6.65%	6.38%	12.31%	11.26%	−19.95%	−8.27%	++++	−	−	−	
Fab-2911: anti-FZD5 Fab with antibody variable region Fv-2911; CDR SEQ ID NOs: 35, 36, 50, 89, 126, 163 (antibody, V domains shown) VH: EVQLVESGGGLVQPGGSLRLSCAASGFNIYYSSMHWVRQAPGKGLEWVAYIYPYSGYTSYADSVKGRFTISADTSKNTAYLQMNSLRAEDTAVYYCARYFWWYGFDYWGQGTLVTVSS VL: DIQMTQSPSSLSASVGDRVTITCRASQSVSSAVAWYQQKPGKAPKLLIYSASSLYSGVPSRFSGSRSGTDFTLTISSLQPEDFATYYCQQGPWYPFTFGQGTKVEIK			2.08%			20.34%	3.18%	++	−	−	−	++
